Reference: patent US20230357425A1 (HARBOUR BIOMED SHANGHAI, published 2023)

molecular target: T1, Cynomolgus monkey CD73 on HEK293-cynoCD73 stable cell line (cynomolgus monkey); test: flow cytometry on HEK293-cynoCD73 stable cells
T1 construct: whole, on cells
Procedure: Binding of antibodies to hCD73 and cynoCD73 expression in stable cell line was characterized by Flow cytometry. The cells were incubated with various concentration antibodies (the top concentration was 50 nM, 8 points, dilution factor 3), then incubate for 1 h at 4° C. Wash two times by PBS, then add the secondary antibody Goat anti-human(H+L) (Thermo fisher, A11013), incubate for 30 min at 4° C. And the fluorescence intensity was read by FACS Machine (BD FACS CantoII). A plot of median fluorescence intensity and the binding EC50 were fitted and calculated by GraphPad Prism 5.

Binder | EC50 [nM]
Tab1 (antibody, human IgG1, lambda, V domains shown, also called PR002078; MEDI9447(TAB1)) VH: EVQLLESGGGLVQPGGSLRLSCAASGFTFSSYAYSWVRQAPGKGLEWVSAISGSGGRTYYADSVKGRFTISRDNSKNTLYLQMNSLRAEDTAVYYCARLGYGRVDEWGRGTLVTVSS VL: QSVLTQPPSASGTPGQRVTISCSGSLSNIGRNPVNWYQQLPGTAPKLLIYLDNLRLSGVPDRFSGSKSGTSASLAISGLQSEDEADYYCATWDDSHPGWTFGGGTKLTVLG | 0.623
PR000506 (antibody, human IgG1, kappa, L234A L235A, V domains shown, Recombinant antibody from hybridoma clone 38H6; also called 38H6E5 (clone name)) VH: QVQLVESGGGVAQPGRSLSLSCAASGFTFSDYGMHWVRQAPGKGLEWVALIWYDGSFEYYADSVKGRFSISRDNSKNTLYLQMNSLRAEDTAVYYCVRDGQWGSRLDYWGQGTLVTVSS VL: KIVMTQSPATLSLSPGERATLSCRASQSVSRYLAWYQQKPGQAPRLLIYDASNRATGIPARFSGSGSGTDFTLTISSLEPEDFAVYYCQQRSNWIFTFGPGTKVDIKR | 0.323
PR000844 (antibody, human IgG1, kappa, L234A L235A, V domains shown, PTM-removal variant of PR000506 (heavy chain D54E, G100A)) VH: QVQLVESGGGVAQPGRSLSLSCAASGFTFSDYGMHWVRQAPGKGLEWVALIWYEGSFEYYADSVKGRFSISRDNSKNTLYLQMNSLRAEDTAVYYCVRDAQWGSRLDYWGQGTLVTVSS VL: KIVMTQSPATLSLSPGERATLSCRASQSVSRYLAWYQQKPGQAPRLLIYDASNRATGIPARFSGSGSGTDFTLTISSLEPEDFAVYYCQQRSNWIFTFGPGTKVDIKR | 0.475
PR000849 (antibody, human IgG1, kappa, L234A L235A, V domains shown, PTM-removal variant of PR000851 (heavy chain G55A, D99E)) VH: QVQLVESGGGVAQPGRSLSLSCAASGFTFSDYGMHWVRQAPGKGLEWVALIWYDASFEYYADSVKGRFSISRDNSKNTLYLQMNSLRAEDTAVYYCVREGQWGSRLDYWGQGTLVTVSS VL: EIVLTQSPATLSLSPGERATLSCRASQSVSRYLAWYQQKPGQAPRLLIYDASNRATGIPARFSGSGSGTDFTLTISSLEPEDFAVYYCQQRSNWIFTFGPGTKVDIKR | 0.515
